Measurements reported in publication PMC5845987.

Columns and labels:
[1] = target: CCAAT/enhancer binding protein β (C/EBPβ) (UniProt P17676)
[2] = target: CCAAT/enhancer binding protein β (C/EBPβ) (UniProt P17676); remark: listed apart in the source

Sequence of UniProt P17676 (P17676 whole entry): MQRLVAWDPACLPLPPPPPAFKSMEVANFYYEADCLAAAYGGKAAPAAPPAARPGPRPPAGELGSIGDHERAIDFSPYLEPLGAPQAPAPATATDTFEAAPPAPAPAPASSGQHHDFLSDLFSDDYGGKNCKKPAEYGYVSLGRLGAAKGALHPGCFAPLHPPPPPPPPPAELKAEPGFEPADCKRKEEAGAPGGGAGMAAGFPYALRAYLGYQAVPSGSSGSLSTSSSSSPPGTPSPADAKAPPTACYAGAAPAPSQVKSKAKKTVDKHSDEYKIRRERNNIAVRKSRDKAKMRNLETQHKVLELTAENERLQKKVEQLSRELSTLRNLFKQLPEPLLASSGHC

B1: HPV8 E2 protein (human papillomavirus type 8 transcription factor E2) (natural protein)
chain: MENLSERFNVLQDQLMNIYEAAEQTLEAQIAHWLLLRKEAVLLYFARQKGITRIGYQPVPPLAVSEAKAKQAIGIMLQLQSLQKSEFADEPWTLVDTSIETYKNAPENHFKKGATPVEVIYDKQPDNANVYTMWKHIYYTDADDKWHKTTSGVNQTGIYYMQGSFRHYYVVFADDARRYSATGEWEVKINKDTVFAPVTSSTPPGSPPGQADTDTAAKTPTTSADSTSRQQRSPAKQPQQTETKGRRYGRRPSSRTRPQKEQRRSRSRHRTRSRSRSLSRVRAVGSTTVSRSRSSSLTKAVRPRSRSRSRGRATATSRRRAGRGSPRRRRSTSRSPSTNTFKRSQRGGGRRGRGRGSRGRRERSSSTSPTPTKRSRGESSRLRGVSPSEVGRSVQSVSAKHTGRLGRLLDEAIDPPVILVRGEANTLKCFRNRARVRYRGLFKYFSTTWSWVAGDSTERLGRSRMLILFTSAGQRKDFDETVKYPKGVDTSYGNLDSL
Binder B1 has a murine S100A8 promoter luciferase reporter activity in RTS3b cells co-transfected with 0.005 μg C/EBPβ and 0.005, 0.04 or 0.2 μg HPV8 E2 expression vector (control set at 1) [1] of 7 fold, an endogenous S100A8 mRNA (qRT-PCR) in RTS3b cells co-transfected with HPV8 E2 and C/EBPβ: enhancement of C/EBPβ-mediated induction [2] of over 25 fold and an endogenous S100A8 protein level (Western blot quantification) in RTS3b cells co-transfected with HPV8 E2 and C/EBPβ [2] of 90 fold. It also gave an endogenous S100A9 mRNA (qRT-PCR) in RTS3b cells co-transfected with HPV8 E2 and C/EBPβ: enhancement of C/EBPβ-mediated induction [2] of 6 fold and an endogenous S100A9 protein level (Western blot quantification) in RTS3b cells co-transfected with HPV8 E2 and C/EBPβ [2] of 31 fold.
